Results as given in US20200407673A1, “DEVICE, KIT AND METHOD FOR THREE-DIMENSIONAL CELL CULTURE” (RIGENERAND S.R.L., priority 2018, published 2020).

System: luciferase positive tumor cells
Assay: efficacy of sTRAIL on luciferase-positive tumor cells grown in the three-dimensional culture device, luciferin light signal
Assay type: cell-based
Conditions: cells grown 72 hours in the device, then 24 hours of treatment; luciferin substrate, luminometer
Procedure: In the culture device 1 the tumor cells “C” which are luciferase-positive are grown for 72 hours and it is possible to monitor the extent of the growth and estimate the number of tumor cells “C” grown inside the culture device 1 by adding the luciferin substrate and detecting the light signal, as shown in the diagram in FIG. 20.
The effectiveness of the sTRAIL biological agent, which is added to the culture medium and is loaded inside the culture device 1, is tested on the tumor mass inside the culture device 1 evaluated at 72 hours.
The efficacy of the treatment is determined after 24 hours by adding the luciferin substrate which is metabolized by the viable tumor cells “C” by the action of the luciferase.
Since the cells “C” that are dead or in apoptosis no longer produce the enzyme, they cannot metabolize the substrate and, consequently, they are no longer able to generate a light signal.

B1: sTRAIL: soluble TNF-related antitumor biological agent apoptosis-inducing ligand; biological cytotoxic agent (protein, UniProt P50591 39-281, looked up)
extracellular domain: TNELKQMQDKYSKSGIACFLKEDDSYWDPNDEESMNSPCWQVKWQLRQLVRKMILRTSEETISTVQEKQQNISPLVRERGPQRVAAHITGTRGRSNTLSSPNSKNEKALGRKINSWESSRSGHSFLSNLHLRNGELVIHEKGFYYIYSQTYFRFQEEIKENTKNDKQMVQYIYKYTSYPDPILLMKSARNSCWSKDAEYGLYSIYQGGIFELKENDRIFVSVTNEHLIDMDHEASFFGAFLVG
modifications: extracellular domain soluble form
light signal (RLUs, proportional to viable cells) after treatment: light signal is reduced in intensity
